From patent publication CN114621343A come the findings set out here.

The term Kd denotes the concentration at which binding is half-saturated. Higher therefore signals weaker binding. For orientation: koff means the first-order rate constant of dissociation. The low end stands for slow dissociation, the high end for fast dissociation. As a reminder, the kon is the rate constant with which the complex forms.

In assay [1] the target is JEV病毒抗原 (JEV Beijing-1株) (Japanese encephalitis virus, Beijing-1 strain). In words: cell-based or functional assay.
In assay [2] the target is JEV包膜E蛋白 (Japanese encephalitis virus (strain not stated)). The experiment in a line: SPR, Biacore T200; 2G1 captured on CM5 chip, E protein as analyte. For orientation: Surface plasmon resonance follows binding to a sensor surface in real time, without labels.

B1: 乙型脑炎病毒鼠源性单克隆抗体2G1 (antibody, V domains shown)
VH: DVQLQESGLDRVKPSQSLSLTCTVTGYSIISGYSWHWIRQFPGKKLEWMGYIHYSGSATYSPSLKSRISITRDTSKNQFFLQLNSVTTEDTATFYCARGDGSSPYYGMDHWGQGTSVTVSS
VL: DIVLTQSPPSLAVSLGQRATISCRASESVEYSGTGLIHWYQQKPGQPPKLLIYAASSVESGVPARFSGSGSGTDFSLNIHPVEDDDLALYFCQQSRKLPWTFGGGSKLEINR
Molecule B1 returned a 半数中和浓度(Neut50) in assay [1] of 0.149 µg/mL. Further, in assay [2], the Kd was 0.0165 µM, the koff stood at 7.06e-05 s⁻¹ and the kon was 4270 M⁻¹ s⁻¹.
